Test results as given in patent publication US12365732 (23ANDME, dated 2025).

Assays:
[1] = target: T1, cy-CD96 (soluble, extracellular domain) (cynomolgus monkey, UniProt P40200 22-516 (human entry), biotinylated in Octet and blocking ELISA); assay: BLI (Octet), biotin-CD96 on SA, Fab analyte
T1 construct: the assays name only cy-CD96; also called biotinylated cy-CD96
T1 chain: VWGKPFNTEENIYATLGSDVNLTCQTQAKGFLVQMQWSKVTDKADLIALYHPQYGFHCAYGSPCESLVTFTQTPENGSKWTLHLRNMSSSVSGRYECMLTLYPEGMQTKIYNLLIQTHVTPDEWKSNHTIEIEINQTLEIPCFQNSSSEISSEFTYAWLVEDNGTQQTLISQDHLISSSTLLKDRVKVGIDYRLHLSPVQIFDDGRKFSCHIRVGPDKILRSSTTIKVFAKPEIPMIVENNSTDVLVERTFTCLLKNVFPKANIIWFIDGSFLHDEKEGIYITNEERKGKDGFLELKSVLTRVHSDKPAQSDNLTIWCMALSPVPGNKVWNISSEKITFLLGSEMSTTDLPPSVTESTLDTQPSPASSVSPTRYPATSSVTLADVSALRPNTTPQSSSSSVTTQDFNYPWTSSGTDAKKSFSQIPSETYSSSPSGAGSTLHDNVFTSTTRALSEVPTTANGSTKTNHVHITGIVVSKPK

[2] = target: T2, hu-CD96 (soluble, isoform 2 extracellular domain) (human, UniProt P40200 22-516, biotinylated in Octet and blocking ELISA); assay: BLI (Octet), biotin-CD96 on SA, Fab analyte
T2 construct: the assays name only hu-CD96; also called hCD96; biotinylated hu-CD96
T2 sequence: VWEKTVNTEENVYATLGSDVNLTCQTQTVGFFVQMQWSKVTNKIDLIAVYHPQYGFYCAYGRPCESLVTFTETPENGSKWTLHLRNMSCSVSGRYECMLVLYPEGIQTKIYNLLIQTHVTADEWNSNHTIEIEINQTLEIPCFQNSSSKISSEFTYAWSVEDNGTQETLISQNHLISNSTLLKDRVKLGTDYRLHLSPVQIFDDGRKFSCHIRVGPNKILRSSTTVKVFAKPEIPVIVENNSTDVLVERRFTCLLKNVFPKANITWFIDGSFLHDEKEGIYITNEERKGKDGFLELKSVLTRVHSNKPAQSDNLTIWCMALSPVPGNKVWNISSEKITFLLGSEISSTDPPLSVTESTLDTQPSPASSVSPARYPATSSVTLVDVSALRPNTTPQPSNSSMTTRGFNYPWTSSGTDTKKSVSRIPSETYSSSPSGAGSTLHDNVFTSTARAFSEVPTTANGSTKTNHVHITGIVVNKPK

[3] = target: T1, cy-CD96 (soluble, extracellular domain); assay: CD155 blocking ELISA
[4] = target: T2, hu-CD96 (soluble, isoform 2 …); assay: CD155 blocking ELISA
hu-CD96 Fc [5] = target: T3, hu-CD96 Fc (human, biotinylated in Table 16); assay: SPR (Biacore), Fab
T3 construct: also called biotinylated hu-CD96-Fc

cy-CD96 Fc = target: T4, cy-CD96 Fc (cynomolgus monkey, biotinylated in Table 16); assay: SPR (Biacore), Fab
T4 construct: also called biotinylated cy-CD96-Fc

[6] = target: T5, hu-CD96 isoform 2 on CHO cells (human, UniProt P40200 22-585); assay: FACS, CD155-Fc-FLAG 10 nM, Ab 100 nM
T5 construct: also called CHO-CD96 (isoform 2); CD96-CHOs
T5 sequence: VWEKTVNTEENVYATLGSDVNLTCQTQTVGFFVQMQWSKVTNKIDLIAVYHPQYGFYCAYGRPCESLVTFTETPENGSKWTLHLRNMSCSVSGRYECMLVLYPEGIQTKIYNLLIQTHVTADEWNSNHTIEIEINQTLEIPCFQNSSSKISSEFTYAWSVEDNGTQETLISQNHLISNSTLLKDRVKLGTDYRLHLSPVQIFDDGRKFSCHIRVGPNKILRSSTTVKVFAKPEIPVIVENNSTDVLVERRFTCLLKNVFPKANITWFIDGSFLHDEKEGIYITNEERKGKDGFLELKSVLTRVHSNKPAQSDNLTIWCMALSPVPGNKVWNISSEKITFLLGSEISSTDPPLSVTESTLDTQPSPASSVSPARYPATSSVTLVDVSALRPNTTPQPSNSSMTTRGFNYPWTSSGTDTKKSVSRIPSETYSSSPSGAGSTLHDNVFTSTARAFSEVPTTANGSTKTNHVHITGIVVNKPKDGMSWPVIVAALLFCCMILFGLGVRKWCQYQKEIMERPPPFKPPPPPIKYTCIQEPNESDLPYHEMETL
Method: (§1) CHO cells stably expressing isoform 2 of hu-CD96 (Origene, catalog #RC221005) were incubated with anti-CD96 antibodies for 20 minutes at 4° C. The cells were washed, and then incubated with 10 nM human CD155-Fc-FLAG for 30 minutes at 4° C. Cells were washed, and then human CD155-Fc-FLAG binding was detected by incubation with anti-FLAG-APC (Columbia Biosciences, catalog #D3-1718-1MG) for 20 minutes at 4° C. Cell binding was analyzed by flow cytometry with a CytoFLEX (Beckman Coulter). CD155 binding is represented as median fluorescence intensity (MedFI).
(§2) As shown in Table 20 (below), the anti-CD96 antibodies, mAb1.v7.NGS8, mAb1.v7.NGS9, mAb1.v7.NGS10, mAb1.v7.NGS11, and h10G1 inhibited soluble hu-CD155 binding to CD96-expressing CHO cells dose-dependently and potently. The antibody NK92.39 (Fuchs et al., 2004; Biolegend catalog #338405) inhibited receptor binding similarly.

[7] = target: T5, hu-CD96 isoform 2 on CHO cells; assay: FACS, CD155-Fc-FLAG 10 nM, Ab 0.16 nM
Method: as §1, §2

[8] = target: T5, hu-CD96 isoform 2 on CHO cells; assay: FACS, CD155-Fc-FLAG 10 nM, Ab 20 nM
Method: as §1, §2

[9] = target: T5, hu-CD96 isoform 2 on CHO cells; assay: FACS, blocks 10 nM CD155-Fc-FLAG binding to CD96-CHO
Method: as §1, §2

[10] = target: T5, hu-CD96 isoform 2 on CHO cells; assay: FACS, CD155-Fc-FLAG 10 nM, Ab 0.0064 nM
Method: as §1, §2

[11] = target: T5, hu-CD96 isoform 2 on CHO cells; assay: FACS, CD155-Fc-FLAG 10 nM, Ab 0.032 nM
Method: as §1, §2

hu-CD96 Fc [12] = target: T3, hu-CD96 Fc; assay: SPR 37C, biotin-CD96-Fc captured, IgG analyte
Method: Briefly, a 1:4 dilution of Biotin CAPture Reagent (GE Healthcare) into HBS-EP buffer (0.01 M HEPES pH 7.4, 0.15 M NaCl, 3 mM EDTA, 0.005% Surfactant P20) was applied to the chip at 2 µL/min flow rate. For the kinetics measurements, 20 nM biotinylated hu-CD96-Fc and cy-CD96-Fc was captured at 10 µL/min to achieve ~50 response units in the second flow cell (FC2). FC1 was kept as a reference. Next, 4-fold serial dilutions of IgG in HBS-P buffer (0.01 M HEPES pH 7.4, 0.15 M NaCl, 0.005% surfactant P20) from low (3.125 nM) to high (200 nM) concentration were injected (flow rate: 10 µL/min) at 37° C. The sensorgram was recorded and subject to reference and buffer subtraction before evaluating by BIACORE® 8K Evaluation Software (version 1.1.1.7442). Association rates ($kon$) and dissociation rates ($koff$) were calculated using a simple one-to-one Langmuir binding model. The equilibrium dissociation constant (K_D) value was calculated as the ratio of $koff/kon$.

[13] = target: T5, hu-CD96 isoform 2 on CHO cells; assay: FACS, CD155-Fc-FLAG 10 nM, Ab 0.8 nM
Method: as §1, §2

[14] = target: T5, hu-CD96 isoform 2 on CHO cells; assay: FACS, CD155-Fc-FLAG 10 nM, Ab 4 nM
Method: as §1, §2

| Binder | IC50 [3] | IC50 [4] | Kd (hu-CD96 Fc [5]) | koff (hu-CD96 Fc [5]) | kon (hu-CD96 Fc [5]) | Kd (cy-CD96 Fc) | koff (cy-CD96 Fc) | kon (cy-CD96 Fc) | also measured |
| --- | --- | --- | --- | --- | --- | --- | --- | --- | --- |
| mAb1.v7.NGS9 Fab (Fab, V domains shown, also called W33F/P52aA/T97V) VH: EVQLVQSGAEVKKPGASVKVSCKASGFTFTNNFMHWVRQAPGQGLEWIGMIHANSGITNINEKFKNRVTMTTDTSTSTAYMELRSLRSEDTAVYYCRSDGVYEGYFDYWGQGTLVTVSS VL: DIQLTQSPSSLSASVGDRVTITCKASQNVGTAIVWYQQKPGKAPKVLIYSASTRYTGVPSRFSGSGSGTDFTLTISSLQPEDFATYYCQQYSSSPLTFGQGTKVEIK | 0.73 nM | 0.78 nM | 5.85 nM | 8.32e-05 s⁻¹ | 14200 M⁻¹ s⁻¹ | 16.7 nM | 0.000414 s⁻¹ | 24800 M⁻¹ s⁻¹ | Kd [1]: 82 nM; Kd [2]: 0.1 nM |
| mAb1.v7.NGS10 Fab (Fab, V domains shown, Fab; also called W33F/M50F/P52aA/T97I) VH: EVQLVQSGAEVKKPGASVKVSCKASGFTFTNNFMHWVRQAPGQGLEWIGFIHANSGITNINEKFKNRVTMTTDTSTSTAYMELRSLRSEDTAVYYCRSDGIYEGYFDYWGQGTLVTVSS VL: DIQLTQSPSSLSASVGDRVTITCKASQNVGTAIVWYQQKPGKAPKVLIYSASTRYTGVPSRFSGSGSGTDFTLTISSLQPEDFATYYCQQYSSSPLTFGQGTKVEIK | 0.84 nM | 0.54 nM | 2.1 nM | 2.6e-05 s⁻¹ | 12100 M⁻¹ s⁻¹ | 30 nM | 0.000343 s⁻¹ | 11400 M⁻¹ s⁻¹ |  |
| mAb1.v7.NGS11 Fab (Fab, V domains shown, also called W33F/M50F/P52aA/T97V) VH: EVQLVQSGAEVKKPGASVKVSCKASGFTFTNNFMHWVRQAPGQGLEWIGFIHANSGITNINEKFKNRVTMTTDTSTSTAYMELRSLRSEDTAVYYCRSDGVYEGYFDYWGQGTLVTVSS VL: DIQLTQSPSSLSASVGDRVTITCKASQNVGTAIVWYQQKPGKAPKVLIYSASTRYTGVPSRFSGSGSGTDFTLTISSLQPEDFATYYCQQYSSSPLTFGQGTKVEIK | 0.95 nM | 0.59 nM | 2.62 nM | 2.75e-05 s⁻¹ | 10500 M⁻¹ s⁻¹ | 19.1 nM | 0.000215 s⁻¹ | 11200 M⁻¹ s⁻¹ |  |
| mAb1.v7.NGS8 IgG (antibody, V domains shown, human IgG1 N297G) VH: EVQLVQSGAEVKKPGASVKVSCKASGFTFTNNFMHWVRQAPGQGLEWIGMIHANSGITNINEKFKNRVTMTTDTSTSTAYMELRSLRSEDTAVYYCRSDGIYEGYFDYWGQGTLVTVSS VL: DIQLTQSPSSLSASVGDRVTITCKASQNVGTAIVWYQQKPGKAPKVLIYSASTRYTGVPSRFSGSGSGTDFTLTISSLQPEDFATYYCQQYSSSPLTFGQGTKVEIKG |  |  |  |  |  |  |  |  | CD155-Fc binding (MedFI) [6]: 4180 MedFI; CD155-Fc binding (MedFI) [7]: 52900 MedFI; CD155-Fc binding (MedFI) [8]: 4290 MedFI; IC50 [9]: 0.76 nM; CD155-Fc binding (MedFI) [10]: 49200 MedFI; CD155-Fc binding (MedFI) [11]: 47800 MedFI; Kd (hu-CD96 Fc [12]): 0.15 nM; koff (hu-CD96 Fc [12]): 1.99e-05 s⁻¹; kon (hu-CD96 Fc [12]): 129000 M⁻¹ s⁻¹; CD155-Fc binding (MedFI) [13]: 23600 MedFI; CD155-Fc binding (MedFI) [14]: 4960 MedFI |
